{"source": "IntAct's records for PubMed 20176808", "parents": {"B1": {"name": "Inactive serine/threonine-protein kinase TEX14 (Mus musculus), Q7M6U3 (parent)", "chain": "MSRGAPFPVPCPVLLGTFTDDSLEAQLHEYAKQGNCVKLKKILKKGVCVDAVNTQGQSALFVAALLGHVKLVDVLVDYGSDPNHRCFDGSTPVHAAAFSGNQWILSKLLTAGGDLRLHDEKGRNPQAWALTAGKDRSTQMVEFMQRCTSHMKAIIQGFSYDLLKKIDSPQRLIGSPPWFGSLIQGSPNSSPNRQLKPGIISAQNIYSFGFGKFYLTSGMQLTYPGSLPVIGEKEVVQADDEPTFSFFSGPYMVMTNLVWNRSRVTVKELNLPTRPHCSRLRLADLLIAEQEHSSNLRHPNLLQLMAVCLSRDLEKIRLVYERITVGTLFSVLHERRSQFPVLHMEVIVHLLLQVADALIYLHSRGFIHRSLSSYAVHIVSAGEARLTNLEYLTESQDSGAHRNVTRMPLPTQLYNWAAPEVVLQKAATVKSDIYSFSVIIQEILTDSIPWNGLDGSLVKETIALGNYLEADVRLPEPYYDIVKSGIHAKQKNRTMNLQDIRYILKNDLKEFIGAQKTQPTESPRGQSYEPHPDVNICLGLTSEYQKDPPDLDIKELKEMGSQPHSPTDHSFLTVKPTLAPQTLDSSLSAQKPDNANVPSPPAACLAEEVRSPTASQDSLCSFEINEIYSGCLTLGTDKEEECLGTAASPEGDRPNQGDELPSLEEELDKMERELHCFCEEDKSISEVDTDLLFEDDDWQSDSLGSLNLPEPTREAKGKTSSWSKTDEYVSKCVLNLKISQVMMQQSAEWLRKLEQEVEELEWAQKELDSQCSSLRDASLKFANAKFQPAVGPPSLAYLPPVMQLPGLKQPENGGTWLTLARSPGNEREFQEGHFSKKPEKLSACGWKPFTQVSEESRGDCSELNNQLPTLRGPGKQSTGEQLPSTQEARESLEKNTNQNSRSMASVSSEIYATKSRNNEDNGEAHLKWRLAVKEMAEKAVSGQLLLPPWNPQSSAPFESKVENESTPLPRPPIRGPESTEWQHILEYQRENDEPKGNTKFGKMDNSDCDKNKHSRWTGLQRFTGIRYPFFRNHEQPEQNEASQASCDTSVGTEKFYSTSSPIGDDFERFQDSFAQRQGYVEENFQIREIFEKNAEILTKPQFQAIQCAEDKQDETLGETPKELKEKNTSLTDIQDLSSITYDQDGYFKETSYKTPKLKHAPTSASTPLSPESISSAASHYEDCLENTTFHVKRGSTFCWNGQEAMRTLSAKFTTVRERAKSLESLLASSKSLPAKLTDSKRLCMLSETGSSNVSAAFVTSTHATKRKSLPRELAEATSQQHLDELPPPAQELLDEIEQLKQQQVSSLASHENTARDLSVTNKDKKHLEEQETNSSKDSSFLSSREIQDLEDTERAHSSLDEDLERFLQSPEENTALLDPTKGSTREKKNKDQDVVEQKRKKKESIKPERRESDSSLGTLEEDELKPCFWKRLGWSEPSRIIVLDQSDLSD", "partner": "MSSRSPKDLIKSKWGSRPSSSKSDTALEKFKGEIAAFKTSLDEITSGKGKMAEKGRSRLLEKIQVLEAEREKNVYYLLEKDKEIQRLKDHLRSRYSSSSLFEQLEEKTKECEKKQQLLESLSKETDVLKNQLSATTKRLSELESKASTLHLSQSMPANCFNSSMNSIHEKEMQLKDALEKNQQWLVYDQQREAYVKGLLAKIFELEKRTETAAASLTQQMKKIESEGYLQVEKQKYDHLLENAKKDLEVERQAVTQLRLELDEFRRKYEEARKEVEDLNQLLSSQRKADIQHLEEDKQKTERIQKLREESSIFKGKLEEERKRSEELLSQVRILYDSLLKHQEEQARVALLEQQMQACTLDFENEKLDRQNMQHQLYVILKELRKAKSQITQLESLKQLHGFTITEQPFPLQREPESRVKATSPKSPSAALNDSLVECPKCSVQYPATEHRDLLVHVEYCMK"}}}
{"variants_of": "B1", "conditions": "with cep55_mouse Cep55, Q8BT07"}
{"variant": "P792A", "effect of a mutation on the interaction": "disrupting interaction"}
{"variant": "Y797A", "effect of a mutation on the interaction": "disrupting interaction"}
{"variant": "P793A", "effect of a mutation on the interaction": "decreasing interaction"}
